# Numbered stars: 1 amine (or outer) side, 2 acyl side, 3 side chain; on linkers, the order of the positions; unused ones are H or OH. Bridge positions count the residues as written; N and C are the ends. Square brackets hold non-standard residues; d marks the D form. Ends that are not written are not given here. * marks the point of attachment. Phe(2,3-F2) = (2S)-3-(2,3-difluorophenyl)-2-aminopropanoic acid, O=C([C@H](Cc1cccc(F)c1F)N[*:1])[*:2]; X7 = 4‑(3,5-Dimethyl-1,2-oxazol-4-yl)‑L‑phenylalanine, Cc1noc(C)c1-c1ccc(C[C@H](N[*:1])C(=O)[*:2])cc1; X5 = Tetrahydropyranyl‑4‑acetic acid, O=C(CC1CCOCC1)*; Pro(4-spirocPr) = O=C(O)[C@@H]1CC2(CC2)CN1; Oic = O=C(O)[C@@H]1C[C@@H]2CCCC[C@@H]2N1; Cyclobutylacetic = O=C(CC1CCC1)*; tBuAla = CC(C)(C)C[C@H](N)C(=O)O; (3-Me)H = L-3-methylhistidine; Pen = CC(C)(S)[C@H](N)C(=O)O; NMeC = CN[C@@H](CS)C(=O)O; NMeA = CN[C@@H](C)C(=O)O; Orn = NCCC[C@H](N)C(=O)O; Sar = CNCC(=O)O
# T1: recombinant rat MASP1 active protease (amino acids 302-704, C-terminal His Tag) (rat, UniProt Q8CHN8 302-704)
# T1 sequence: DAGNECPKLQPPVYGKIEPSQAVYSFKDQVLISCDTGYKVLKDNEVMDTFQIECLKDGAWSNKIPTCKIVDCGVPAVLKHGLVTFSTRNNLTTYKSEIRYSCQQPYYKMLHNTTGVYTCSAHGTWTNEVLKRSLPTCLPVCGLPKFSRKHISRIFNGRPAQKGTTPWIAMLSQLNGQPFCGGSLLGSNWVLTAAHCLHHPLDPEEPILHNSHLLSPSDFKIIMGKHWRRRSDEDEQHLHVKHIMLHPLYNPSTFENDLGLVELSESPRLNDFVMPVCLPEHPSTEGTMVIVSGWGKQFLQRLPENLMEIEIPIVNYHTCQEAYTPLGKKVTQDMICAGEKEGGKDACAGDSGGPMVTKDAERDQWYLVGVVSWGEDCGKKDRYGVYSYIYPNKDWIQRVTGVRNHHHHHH
# B1: Example 360: (4-(3,5-Dimethyl-1,2-oxazol-4-yl)-L-phenylalanine)-IC+SRSLP-(Oic)-I-(Pen)+IP-NH2 (peptide)
# peptide: [X7]ICSRSLP[Oic]I[Pen]IP-NH2
# modifications: disulfide 3-11; N-terminus assumed
# SMILES: CC[C@H](C)[C@H](NC(=O)[C@@H](N)Cc1ccc(-c2c(C)noc2C)cc1)C(=O)N[C@H]1CSSC(C)(C)[C@@H](C(=O)N[C@H](C(=O)N2CCC[C@H]2C(N)=O)[C@@H](C)CC)NC(=O)[C@H]([C@@H](C)CC)NC(=O)[C@@H]2C[C@@H]3CCCC[C@@H]3N2C(=O)[C@@H]2CCCN2C(=O)[C@H](CC(C)C)NC(=O)[C@H](CO)NC(=O)[C@H](CCCNC(=N)N)NC(=O)[C@H](CO)NC1=O
# B2: Example 305: (Tetrahydropyranyl-4-acetic acid)-IC+SRS-((tBu)A)-PPI-((N-Me)C)+I-NH2 (peptide)
# peptide: X5-ICSRS[tBuAla]PPI[NMeC]I-NH2
# modifications: disulfide 2-10
# SMILES: CC[C@H](C)[C@H](NC(=O)[C@@H]1CSSC[C@H](NC(=O)[C@@H](NC(=O)CC2CCOCC2)[C@@H](C)CC)C(=O)N[C@@H](CO)C(=O)N[C@@H](CCCNC(=N)N)C(=O)N[C@@H](CO)C(=O)N[C@@H](CC(C)(C)C)C(=O)N2CCC[C@H]2C(=O)N2CCC[C@H]2C(=O)N[C@@H]([C@@H](C)CC)C(=O)N1C)C(N)=O
# B3: Example 441: ((N-Me)G)-IC+SRS-((2S)-3-(2,3-difluorophenyl)-2-aminopropanoic acid)-P-(Oic)-I-(Pen)+IP-NH2 (peptide)
# peptide: [Sar]ICSRS[Phe(2,3-F2)]P[Oic]I[Pen]IP-NH2
# modifications: disulfide 3-11; N-terminus assumed
# SMILES: CC[C@H](C)[C@H](NC(=O)CNC)C(=O)N[C@H]1CSSC(C)(C)[C@@H](C(=O)N[C@H](C(=O)N2CCC[C@H]2C(N)=O)[C@@H](C)CC)NC(=O)[C@H]([C@@H](C)CC)NC(=O)[C@@H]2C[C@@H]3CCCC[C@@H]3N2C(=O)[C@@H]2CCCN2C(=O)[C@H](Cc2cccc(F)c2F)NC(=O)[C@H](CO)NC(=O)[C@H](CCCNC(=N)N)NC(=O)[C@H](CO)NC1=O
# B4: Example 439: ((N-Me)G)-IC+SRS-((tBu)A)-P-((6S)-5-Azaspiro[2.4]heptane-6-carboxylic acid)-I-(Pen)+IP-NH2 (peptide)
# peptide: [Sar]ICSRS[tBuAla]P[Pro(4-spirocPr)]I[Pen]IP-NH2
# modifications: disulfide 3-11; N-terminus assumed
# SMILES: CC[C@H](C)[C@H](NC(=O)CNC)C(=O)N[C@H]1CSSC(C)(C)[C@@H](C(=O)N[C@H](C(=O)N2CCC[C@H]2C(N)=O)[C@@H](C)CC)NC(=O)[C@H]([C@@H](C)CC)NC(=O)[C@@H]2CC3(CC3)CN2C(=O)[C@@H]2CCCN2C(=O)[C@H](CC(C)(C)C)NC(=O)[C@H](CO)NC(=O)[C@H](CCCNC(=N)N)NC(=O)[C@H](CO)NC1=O
# B5: Example 370: fIC+SRSLP-(Oic)-I-(Pen)+IP-NH2 (peptide)
# peptide: [dF]ICSRSLP[Oic]I[Pen]IP-NH2
# modifications: disulfide 3-11; N-terminus assumed
# SMILES: CC[C@H](C)[C@H](NC(=O)[C@H](N)Cc1ccccc1)C(=O)N[C@H]1CSSC(C)(C)[C@@H](C(=O)N[C@H](C(=O)N2CCC[C@H]2C(N)=O)[C@@H](C)CC)NC(=O)[C@H]([C@@H](C)CC)NC(=O)[C@@H]2C[C@@H]3CCCC[C@@H]3N2C(=O)[C@@H]2CCCN2C(=O)[C@H](CC(C)C)NC(=O)[C@H](CO)NC(=O)[C@H](CCCNC(=N)N)NC(=O)[C@H](CO)NC1=O
# B6: Example 440: ((N-Me)G)-IC+SRS-((2S)-3-(2,3-difluorophenyl)-2-aminopropanoic acid)-PPI-(Pen)+IP-NH2 (peptide)
# peptide: [Sar]ICSRS[Phe(2,3-F2)]PPI[Pen]IP-NH2
# modifications: disulfide 3-11; N-terminus assumed
# SMILES: CC[C@H](C)[C@H](NC(=O)CNC)C(=O)N[C@H]1CSSC(C)(C)[C@@H](C(=O)N[C@H](C(=O)N2CCC[C@H]2C(N)=O)[C@@H](C)CC)NC(=O)[C@H]([C@@H](C)CC)NC(=O)[C@@H]2CCCN2C(=O)[C@@H]2CCCN2C(=O)[C@H](Cc2cccc(F)c2F)NC(=O)[C@H](CO)NC(=O)[C@H](CCCNC(=N)N)NC(=O)[C@H](CO)NC1=O
# B7: Example 284: (Cyclobutylacetic)-IC+SRS-((tBu)A)-PPI-(Pen)+IP-NH2 (peptide)
# peptide: Cyclobutylacetic-ICSRS[tBuAla]PPI[Pen]IP-NH2
# modifications: disulfide 2-10
# SMILES: CC[C@H](C)[C@H](NC(=O)CC1CCC1)C(=O)N[C@H]1CSSC(C)(C)[C@@H](C(=O)N[C@H](C(=O)N2CCC[C@H]2C(N)=O)[C@@H](C)CC)NC(=O)[C@H]([C@@H](C)CC)NC(=O)[C@@H]2CCCN2C(=O)[C@@H]2CCCN2C(=O)[C@H](CC(C)(C)C)NC(=O)[C@H](CO)NC(=O)[C@H](CCCNC(=N)N)NC(=O)[C@H](CO)NC1=O
# B8: Example 381: ((N-Me)G)-(Orn)-(Orn)-(Orn)-IC+SRS-((tBu)A)-PPI-(Pen)+IP-NH2 (peptide)
# peptide: [Sar][Orn][Orn][Orn]ICSRS[tBuAla]PPI[Pen]IP-NH2
# modifications: disulfide 6-14; N-terminus assumed
# SMILES: CC[C@H](C)[C@H](NC(=O)[C@H](CCCN)NC(=O)[C@H](CCCN)NC(=O)[C@H](CCCN)NC(=O)CNC)C(=O)N[C@H]1CSSC(C)(C)[C@@H](C(=O)N[C@H](C(=O)N2CCC[C@H]2C(N)=O)[C@@H](C)CC)NC(=O)[C@H]([C@@H](C)CC)NC(=O)[C@@H]2CCCN2C(=O)[C@@H]2CCCN2C(=O)[C@H](CC(C)(C)C)NC(=O)[C@H](CO)NC(=O)[C@H](CCCNC(=N)N)NC(=O)[C@H](CO)NC1=O
# B9: Example 323: GIC+SRSLP-(Oic)-IC+IPD-OH (peptide)
# peptide: GICSRSLP[Oic]ICIPD-OH
# modifications: disulfide 3-11; N-terminus assumed
# SMILES: CC[C@H](C)[C@H](NC(=O)CN)C(=O)N[C@H]1CSSC[C@@H](C(=O)N[C@H](C(=O)N2CCC[C@H]2C(=O)N[C@@H](CC(=O)O)C(=O)O)[C@@H](C)CC)NC(=O)[C@H]([C@@H](C)CC)NC(=O)[C@@H]2C[C@@H]3CCCC[C@@H]3N2C(=O)[C@@H]2CCCN2C(=O)[C@H](CC(C)C)NC(=O)[C@H](CO)NC(=O)[C@H](CCCNC(=N)N)NC(=O)[C@H](CO)NC1=O
# B10: Example 347: IC+SRSLP-(Oic)-I-(Pen)+IPD-OH (peptide)
# peptide: ICSRSLP[Oic]I[Pen]IPD-OH
# modifications: disulfide 2-10; N-terminus assumed
# SMILES: CC[C@H](C)[C@H](N)C(=O)N[C@H]1CSSC(C)(C)[C@@H](C(=O)N[C@H](C(=O)N2CCC[C@H]2C(=O)N[C@@H](CC(=O)O)C(=O)O)[C@@H](C)CC)NC(=O)[C@H]([C@@H](C)CC)NC(=O)[C@@H]2C[C@@H]3CCCC[C@@H]3N2C(=O)[C@@H]2CCCN2C(=O)[C@H](CC(C)C)NC(=O)[C@H](CO)NC(=O)[C@H](CCCNC(=N)N)NC(=O)[C@H](CO)NC1=O
# B11: Example 405: ((N-Me)G)-(Orn)-(Orn)-(Orn)-IC+SRSLP-(Oic)-I-(Pen)+IP-NH2 (peptide)
# peptide: [Sar][Orn][Orn][Orn]ICSRSLP[Oic]I[Pen]IP-NH2
# modifications: disulfide 6-14; N-terminus assumed
# SMILES: CC[C@H](C)[C@H](NC(=O)[C@H](CCCN)NC(=O)[C@H](CCCN)NC(=O)[C@H](CCCN)NC(=O)CNC)C(=O)N[C@H]1CSSC(C)(C)[C@@H](C(=O)N[C@H](C(=O)N2CCC[C@H]2C(N)=O)[C@@H](C)CC)NC(=O)[C@H]([C@@H](C)CC)NC(=O)[C@@H]2C[C@@H]3CCCC[C@@H]3N2C(=O)[C@@H]2CCCN2C(=O)[C@H](CC(C)C)NC(=O)[C@H](CO)NC(=O)[C@H](CCCNC(=N)N)NC(=O)[C@H](CO)NC1=O
# Target: recombinant rat MASP2 active protease (amino acids 296-685, C-terminal His Tag) (rat, UniProt Q9JJS8 296-685)
# Assay: cell-based or functional assay
# Sequence of recombinant rat MASP2 active protease (amino acids 296-685, C-terminal His Tag) (Q9JJS8 other isoform, or with tags, fused parts or gaps limits assumed): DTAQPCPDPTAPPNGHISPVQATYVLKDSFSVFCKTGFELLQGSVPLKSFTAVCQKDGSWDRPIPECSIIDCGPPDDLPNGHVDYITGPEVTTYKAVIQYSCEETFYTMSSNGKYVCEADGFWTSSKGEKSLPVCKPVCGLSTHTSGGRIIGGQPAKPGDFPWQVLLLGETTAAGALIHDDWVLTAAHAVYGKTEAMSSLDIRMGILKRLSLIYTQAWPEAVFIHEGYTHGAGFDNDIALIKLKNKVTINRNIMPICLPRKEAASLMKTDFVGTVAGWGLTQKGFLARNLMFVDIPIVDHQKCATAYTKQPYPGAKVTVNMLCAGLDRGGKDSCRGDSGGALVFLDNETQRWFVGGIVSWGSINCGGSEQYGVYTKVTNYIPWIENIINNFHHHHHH
row,Binder,rat MASP2 IC50 [nM]
1,B1,73
2,B2,5.3
3,B3,120
4,B4,9.4
5,"[NMeA]ICSRS[tBuAla]P[(3R,6R)‑1,1‑Difluoro‑5‑azaspiro(2.4)heptane‑6‑carboxylic acid (enantiomer 1)]I[Pen]IP-NH2 (disulfide 3-11)",4.7
6,B5,170
7,B6,14
8,[Sar]ICSRSLP[Oic]I[Pen]IPP[(2S)‑3‑(Triazol-1-yl)‑2‑(amino)propanoic acid]-NH2 (disulfide 3-11),31
9,[Sar]ICSRSLP[Oic]I[Pen]IP[5‑Azaspiro(2.4)heptane‑1‑carboxylic acid]-OH (disulfide 3-11) [Example 438: ((N-Me)G)-IC+SRSLP-(Oic)-I-(Pen)+IP-((5-Azaspiro[2.4]heptane-1-carboxylic acid)-OH],22
10,B7,9.7
11,B8,470
12,B9,60.1
13,[Sar]ICSRSLP[Oic]I[Pen]I[5‑Azaspiro(2.4)heptane‑1‑carboxylic acid]-OH (disulfide 3-11) [Example 419: ((N-Me)G)-IC+SRSLP-(Oic)-I-(Pen)+I-((5-Azaspiro[2.4]heptane-1-carboxylic acid)-OH],42
14,[(3-Me)H]ICSRSLP[Oic]I[Pen]IP-NH2 (disulfide 3-11) [Example 444: ((3-Me)H)-IC+SRSLP-(Oic)-I-(Pen)+IP-NH2],9.8
15,B10,1000
16,[Sar]ICSRSLP[Oic]I[Pen]IP[(2S)‑3‑(Triazol-1-yl)‑2‑(amino)propanoic acid]-NH2 (disulfide 3-11) [Example 437: ((N-Me)G)-IC+SRSLP-(Oic)-I-(Pen)+IP-((2S)-3-(Triazol-1-yl)-2-(amino)propanoic acid)-NH2],40
17,B11,510

# Target: T1, recombinant rat MASP1 active protease …
# Assay: cell-based or functional assay
row,Binder,rat MASP1 IC50 [nM]
1,B1,120
2,B2,76
3,B3,410
4,B4,36
5,"[NMeA]ICSRS[tBuAla]P[(3R,6R)‑1,1‑Difluoro‑5‑azaspiro(2.4)heptane‑6‑carboxylic acid (enantiomer 1)]I[Pen]IP-NH2 (disulfide 3-11)",29
6,B5,235
7,B6,610
8,[Sar]ICSRSLP[Oic]I[Pen]IPP[(2S)‑3‑(Triazol-1-yl)‑2‑(amino)propanoic acid]-NH2 (disulfide 3-11),39
9,[Sar]ICSRSLP[Oic]I[Pen]IP[5‑Azaspiro(2.4)heptane‑1‑carboxylic acid]-OH (disulfide 3-11) [Example 438: ((N-Me)G)-IC+SRSLP-(Oic)-I-(Pen)+IP-((5-Azaspiro[2.4]heptane-1-carboxylic acid)-OH],31
10,B7,60
11,B8,600
12,B9,51.8
13,[Sar]ICSRSLP[Oic]I[Pen]I[5‑Azaspiro(2.4)heptane‑1‑carboxylic acid]-OH (disulfide 3-11) [Example 419: ((N-Me)G)-IC+SRSLP-(Oic)-I-(Pen)+I-((5-Azaspiro[2.4]heptane-1-carboxylic acid)-OH],70
14,[(3-Me)H]ICSRSLP[Oic]I[Pen]IP-NH2 (disulfide 3-11) [Example 444: ((3-Me)H)-IC+SRSLP-(Oic)-I-(Pen)+IP-NH2],130
15,B10,1000
16,[Sar]ICSRSLP[Oic]I[Pen]IP[(2S)‑3‑(Triazol-1-yl)‑2‑(amino)propanoic acid]-NH2 (disulfide 3-11) [Example 437: ((N-Me)G)-IC+SRSLP-(Oic)-I-(Pen)+IP-((2S)-3-(Triazol-1-yl)-2-(amino)propanoic acid)-NH2],46
17,B11,650

# Reference: patent US20210246166A1 (Bayer, published 2021)
